Data: US7960140B2, “Avidin mutants” (Orion Diagnostica Oy, priority 2003, dated 2011)

Tests used:
[1] = Dissociation assay with fluorescent biotin conjugate (ArcDia BF560); assay type: binding
Experimental: The biotin-binding properties of produced mutagenised dcAvds were analysed by method based on the quenching of biotin-coupled fluorescent probe ArcDia BF560 (ArcDia Ltd., Turku, Finland) due to binding to avidin (FIG. 4). PerkinElmer LS55 luminometer was used for measurements. […] The spectra of 50 nM biotin-Bf560 solution in 50 mM Na-phosphate containing 650 mM NaCl was measured (red). Chicken avidin (Belovo S. A., Bastogne, Belgium) was added to final subunit concentration of 83 nM and green spectra was obtained.
Briefly, 50 nM free biotin-Bf560 solution in 50 mM Na-phosphate containing 650 mM NaCl was measured using excitation at 560 nm (2.5 nm slit) and emission was collected at 578 nm (5 nm slit). Continuous stirring (setting low) was used throughout the analysis. After 100 sec measurement, the protein under study was added to final biotin-binding subunit concentration 50 nM and the measurement was continued for 500 sec. […]
A one-phase dissociation model was used to analyse the data, as described elsewhere (Hytönen et al., (2004) Biochem J, in press). The dissociation rate constant (kdiss) was determined by fitting the equation −kdisst=ln(B/Bo) to the data. Bo is the measured maximum binding (100%) determined as the difference between the fluorescence of the free dye and the fluorescence of the protein-dye complex, and B is the amount of complex measured as a function of time. The first 500 seconds were omitted from the data to abolish the effect of the fast initial phase characteristic of avidin-BF560-biotin interaction (FIG. 9). The fraction of fluorescent biotin released after one-hour was determined, as well as the times of half-maximal (t½) and quarter-maximal (t¼) release. For dual chain avidins with modified binding sites, it was hypothesized that 50% of the binding sites would behave like those of wt avidin (cpAvd5S4 binding site of dcAvd was not modified). The dissociation data measured for wt avidin divided by two was subtracted from the data measured for the modified dual chain avidins and the dissociation curve was fitted to the difference as above.

[2] = Free biotin-binding sites by quenching of intrinsic fluorescence on biotin titration
Experimental: The number of free binding sites was determined based on the quenching of the intrinsic fluorescence of avidin due to binding of biotin (Laitinen et al., (2003) J. Biol. Chem. 278, 4010-4014). The protein sample under study diluted to 2 ml volume in 50 mM NaPO4 pH 7.0+650 mM NaCl was titrated with 1 μl additions of 70 μM biotin solution in the same buffer. The protein concentration in this assay was 500±15 nM, and the concentration was determined by comparing the emission intensity averaged over 340-350 nm (excitation at 280 nm) to avidin standard sample. The protein sample was continuously mixed by magnetic stirrer.
Intensity from each biotin concentration was averaged over eight second measurement. The end-point of the quenching was determined by fitting a line to obtained data and determining the total quenching by averaging the last three measured intensities (FIG. 12, Table 6).

[3] = Microplate temperature stability assay; assay type: physicochemical
Experimental: FIG. 13. Temperature sensitivity determined by microplate assay. The avidin, dcAvd and scAvd sample is treated with the indicated temperature for certain time and the ability to bind biotinylated alkaline phosphatase was determined by coating the microplate with the sample.
The stability of the protein was studied by microplate assay as described in the article by Nordlund et al., (2003) J Biol Chem 278, 2479-83. In this assay, 50 mM Na—PO4 buffer containing 100 mM NaCl was used and the protein was heated to 80° C. or 90° C. for certain time. After that, the capacity to bind fluorescent biotin was measured as described in the article by Nordlund et al., (2003) J Biol Chem 278, 2479-83.

[4] = Radiobiotin dissociation assay; assay type: binding; conditions: various temperatures
Experimental: FIG. 11. Radiobiotin dissociation assay for scAvd. Temperature-dependence of biotin dissociation rates measured by the [3H]biotin dissociation assay. Dissociation rate constant of radiobiotin was determined at various temperatures. The dissociation rate constants determined previously for avidin and streptavidin are also shown. The determined kdiss-values are connected by lines.
Radiobiotin assay was performed for scAvd in various temperatures.

B1: scAvd: single-chain avidin, two dcAvd fused tail-to-head via 12 amino-acid linker GGSGSGSGSGSG (SEQ ID NO:24) (protein, listed as Gallus gallus)
chain: MVHATSPLLLLLLLSLALVAPGLSARKRTQPTFGFTVNWKFSESTTVFTGQCFIDRNGKEVLKTMWLLRSSVNDIGDDWKATRVGINIFTRLRTQKEGGSGGSARKCSLTGKWTNDLGSNMTIGAVNSRGEFTGTYITAVTATSNEIKESPLHGTQNTINKSGGSTTVFTGQCFIDRNGKEVLKTMWLLRSSVNDIGDDWKATRVGINIFTRLRTQKEGGSGGSARKCSLTGKWTNDLGSNMTIGAVNSRGEFTGTYITAVTATSNEIKESPLHGTQNTINKRTQPTFGFTVNWKFSEGGSGSGSGSGSGRTQPTFGFTVNWKFSESTTVFTGQCFIDRNGKEVLKTMWLLRSSVNDIGDDWKATRVGINIFTRLRTQKEGGSGGSARKCSLTGKWTNDLGSNMTIGAVNSRGEFTGTYITAVTATSNEIKESPLHGTQNTINKSGGSTTVFTGQCFIDRNGKEVLKTMWLLRSSVNDIGDDWKATRVGINIFTRLRTQKEGGSGGSARKCSLTGKWTNDLGSNMTIGAVNSRGEFTGTYITAVTATSNEIKESPLHGTQNTINKRTQPTFGFTVNWKFSE
Dissociation of fluorescent biotin Release 1 h ([1]; 25° C.): 8.8% | Dissociation of fluorescent biotin kdiss ([1]; 25° C.): 1.3e-05 s⁻¹ | Dissociation of fluorescent biotin Release 1 h ([1]; 50° C.): 62.3% | Dissociation of fluorescent biotin kdiss ([1]; 50° C.): 0.00025 s⁻¹ | quenching measured for whole emission spectrum (290-500 nm) due to biotin binding ([2]; 290-500 nm): 39.7% | Fluorescence quenching (350 nm) ([2]; intrinsic fluorescence, emission 350 nm, due to binding of biotin): 44.4% | Number of free biotin-binding sites per quaternary unit ([2]; protein 500±15 nM, titrated with biotin): 3.2 | activity after 32 min treatment ([3]; 80° C., 32 min): 26% | heat inactivation ([3]; 90° C.): fast denaturation | heat inactivation ([3]; 100° C.): fast inactivation | dissociation of [3H]biotin [4]: extremely slow dissociation of [3H]biotin
